B1: Compound 229 (peptide)
peptide: Ac-MESFPGWNLV[hArg]IGLLR-NH2
SMILES: CC[C@H](C)[C@H](NC(=O)[C@H](CCCCNC(=N)N)NC(=O)[C@@H](NC(=O)[C@H](CC(C)C)NC(=O)[C@H](CC(N)=O)NC(=O)[C@H](Cc1c[nH]c2ccccc12)NC(=O)CNC(=O)[C@@H]1CCCN1C(=O)[C@H](Cc1ccccc1)NC(=O)[C@H](CO)NC(=O)[C@H](CCC(=O)O)NC(=O)[C@H](CCSC)NC(C)=O)C(C)C)C(=O)NCC(=O)N[C@@H](CC(C)C)C(=O)N[C@@H](CC(C)C)C(=O)N[C@@H](CCCNC(=N)N)C(N)=O
B2: Compound 97 (peptide)
peptide: Ac-GSGCWNL[Dap]RIGSQGC-NH2
modifications: disulfide 4-15
SMILES: CC[C@H](C)[C@@H]1NC(=O)[C@H](CCCNC(=N)N)NC(=O)[C@H](CN)NC(=O)[C@H](CC(C)C)NC(=O)[C@H](CC(N)=O)NC(=O)[C@H](Cc2c[nH]c3ccccc23)NC(=O)[C@@H](NC(=O)CNC(=O)[C@H](CO)NC(=O)CNC(C)=O)CSSC[C@@H](C(N)=O)NC(=O)CNC(=O)[C@H](CCC(N)=O)NC(=O)[C@H](CO)NC(=O)CNC1=O
notes: also called Ac-GSG-CWNL(Dpr)RIGSQGC-NH2
B3: Compound 73 (peptide)
peptide: Ac-CRLPWNLARIGLPC-NH2
modifications: disulfide 1-14
SMILES: CC[C@H](C)[C@@H]1NC(=O)[C@H](CCCNC(=N)N)NC(=O)[C@H](C)NC(=O)[C@H](CC(C)C)NC(=O)[C@H](CC(N)=O)NC(=O)[C@H](Cc2c[nH]c3ccccc23)NC(=O)[C@@H]2CCCN2C(=O)[C@H](CC(C)C)NC(=O)[C@H](CCCNC(=N)N)NC(=O)[C@@H](NC(C)=O)CSSC[C@@H](C(N)=O)NC(=O)[C@@H]2CCCN2C(=O)[C@H](CC(C)C)NC(=O)CNC1=O
B4: Compound 96 (peptide)
peptide: Ac-FCLWNLKRIGAQCWF-NH2
modifications: disulfide 2-13
SMILES: CC[C@H](C)[C@@H]1NC(=O)[C@H](CCCNC(=N)N)NC(=O)[C@H](CCCCN)NC(=O)[C@H](CC(C)C)NC(=O)[C@H](CC(N)=O)NC(=O)[C@H](Cc2c[nH]c3ccccc23)NC(=O)[C@H](CC(C)C)NC(=O)[C@@H](NC(=O)[C@H](Cc2ccccc2)NC(C)=O)CSSC[C@@H](C(=O)N[C@@H](Cc2c[nH]c3ccccc23)C(=O)N[C@@H](Cc2ccccc2)C(N)=O)NC(=O)[C@H](CCC(N)=O)NC(=O)[C@H](C)NC(=O)CNC1=O
B5: Compound 111 (peptide)
peptide: Pentanoyl-WNLVRIGLLR-NH2
SMILES: CCCCC(=O)N[C@@H](Cc1c[nH]c2ccccc12)C(=O)N[C@@H](CC(N)=O)C(=O)N[C@@H](CC(C)C)C(=O)N[C@H](C(=O)N[C@@H](CCCNC(=N)N)C(=O)N[C@H](C(=O)NCC(=O)N[C@@H](CC(C)C)C(=O)N[C@@H](CC(C)C)C(=O)N[C@@H](CCCNC(=N)N)C(N)=O)[C@@H](C)CC)C(C)C
B6: Compound 118 (peptide)
peptide: Pentanoyl-WNLV[hArg]IGLTR-NH2
SMILES: CCCCC(=O)N[C@@H](Cc1c[nH]c2ccccc12)C(=O)N[C@@H](CC(N)=O)C(=O)N[C@@H](CC(C)C)C(=O)N[C@H](C(=O)N[C@@H](CCCCNC(=N)N)C(=O)N[C@H](C(=O)NCC(=O)N[C@@H](CC(C)C)C(=O)N[C@H](C(=O)N[C@@H](CCCNC(=N)N)C(N)=O)[C@@H](C)O)[C@@H](C)CC)C(C)C
notes: also called n-BuC(O)-WNLV(homoR)IGLTR-NH2
B7: Compound 28 (peptide)
peptide: SGDLMPWNLVRIGLLR
notes: Printed without N-terminal cap and without C-terminal amide

Bridge positions count the residues as written; N and C are the ends. Square brackets hold non-standard residues; d marks the D form. * marks the point of attachment. 5FAM = O=C1OC2(c3ccc(O)cc3Oc3cc(O)ccc32)c2ccc(C(=O)*)cc21; Ach = 2-aminocyclohexane-1-carboxylic acid; hArg = N=C(N)NCCCC[C@H](N)C(=O)O; Dap = NC[C@H](N)C(=O)O; Pentanoyl = CCCCC(=O)*

The target in one assay is T1, PCSK9Δhelix (human, UniProt Q8NBP7 31-152).
T1 construct: domain: prodomain; Construct M1-Q692 with engineered TEV site, cut with TEV; His-tagged (tag not written as a part); also called His-PCSK9Δhelix; open groove PCSK9Δhelix
T1 sequence (Q8NBP7 31-152 limits assumed, stated change not applied, form in doubt, chain 1 of 2): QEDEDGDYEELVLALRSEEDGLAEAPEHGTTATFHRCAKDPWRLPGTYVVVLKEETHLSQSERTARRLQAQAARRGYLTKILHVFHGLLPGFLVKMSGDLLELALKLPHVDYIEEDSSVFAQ
T1 sequence (Q8NBP7 other isoform, or with tags, fused parts or gaps mutant limits assumed, form in doubt, chain 2 of 2): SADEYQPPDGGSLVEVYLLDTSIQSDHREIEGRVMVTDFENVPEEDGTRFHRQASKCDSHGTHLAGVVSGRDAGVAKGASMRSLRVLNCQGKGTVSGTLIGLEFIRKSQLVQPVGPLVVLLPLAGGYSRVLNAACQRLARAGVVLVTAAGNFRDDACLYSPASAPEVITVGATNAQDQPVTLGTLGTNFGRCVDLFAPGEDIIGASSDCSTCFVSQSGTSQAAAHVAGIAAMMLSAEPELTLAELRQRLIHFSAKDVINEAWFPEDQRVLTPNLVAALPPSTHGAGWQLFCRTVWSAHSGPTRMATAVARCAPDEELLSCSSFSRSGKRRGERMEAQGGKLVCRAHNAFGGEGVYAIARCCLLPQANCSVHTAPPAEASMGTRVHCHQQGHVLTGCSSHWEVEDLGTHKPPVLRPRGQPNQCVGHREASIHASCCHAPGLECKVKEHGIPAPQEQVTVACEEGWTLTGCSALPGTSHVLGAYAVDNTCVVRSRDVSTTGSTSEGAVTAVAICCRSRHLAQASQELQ
The experiment in a line: TR-FRET competition, Ab20 as competitor.
In the case of B1, the “fold improvement of affinity against Compound 192” value was more than 6 fold.

The target of the next assay is T2, human PCSK9 (proprotein convertase subtilisin/kexin type 9), His-tagged, full-length (human, UniProt A8T644 31-152; Q8NBP7 153-692, limits assumed).
T2 construct: The secreted protein is the prodomain plus the catalytic/Cys-rich part (N-terminus S153) after autocleavage; also called His-PCSK9; NARC-1
T2 sequence (A8T644 31-152 limits assumed, chain 1 of 2): as the sequence (Q8NBP7 31-152 limits assumed, stated change not applied, form in doubt, chain 1 of 2) above
T2 sequence (A8T644 other isoform, or with tags, fused parts or gaps limits assumed, chain 2 of 2): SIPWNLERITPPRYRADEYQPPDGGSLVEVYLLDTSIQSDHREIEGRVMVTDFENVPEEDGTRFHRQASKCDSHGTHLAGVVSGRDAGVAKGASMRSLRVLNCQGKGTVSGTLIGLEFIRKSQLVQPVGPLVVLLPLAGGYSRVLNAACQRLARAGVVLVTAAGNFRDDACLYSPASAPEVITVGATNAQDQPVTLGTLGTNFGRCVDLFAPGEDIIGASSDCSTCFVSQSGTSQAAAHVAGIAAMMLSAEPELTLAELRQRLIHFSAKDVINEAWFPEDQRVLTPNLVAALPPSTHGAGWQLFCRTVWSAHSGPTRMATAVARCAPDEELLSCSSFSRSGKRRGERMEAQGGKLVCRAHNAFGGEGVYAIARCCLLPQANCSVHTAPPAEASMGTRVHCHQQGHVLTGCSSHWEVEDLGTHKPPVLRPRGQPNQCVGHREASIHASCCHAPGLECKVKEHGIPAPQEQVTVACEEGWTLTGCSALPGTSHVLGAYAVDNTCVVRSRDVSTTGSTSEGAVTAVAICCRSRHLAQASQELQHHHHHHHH
The experiment in a line: SPR, SensiQ Pioneer FE, amine-coupled protein, OneStep gradient injection (Method 3). (SPR reads the build-up and loss of mass on a sensor chip optically.)
The term Kd denotes the concentration at which binding is half-saturated. Low values mean higher affinity, high ones lower affinity. As for B2, the affinity, expressed as Kd, was 522 µM.

Molecule Ac-WNLVRIGLLR-NH2 [Compound 53] had a Kd of 223 µM.

Take Ac-CRLPWNLQRIGLPC-NH2 (disulfide 1-14 (inferred)) [Compound 32]: the Kd was found to be 1.3 µM.

For B3, the affinity, expressed as Kd, was 11 µM.

The molecule Ac-PWNLVRIGLLR-NH2 [Compound 52] came in with a Kd of 17.9 µM.

As to B4, binding was put at a Kd of 46.4 µM.

As to Ac-CFIPWNLQRIGLLC-NH2 (disulfide 1-14 (inferred)) [Compound 31], the affinity, expressed as Kd, was 5.83 µM.

In turn, Ac-MPWNLVRIGLLR-NH2 [Compound 51] yielded a Kd of 26.2 µM.

In turn, Ac-ALMPWNLVRIGLLR-NH2 [Compound 45] gave a Kd of 117 µM.

Molecule Ac-DLMPWNLVRIGLAR-NH2 [Compound 55] registered a Kd of 96.5 µM.

As to Ac-CRL[Ach]WNLQRIGLPC-NH2 (disulfide 1-14) [Compound 82], the affinity, expressed as Kd, was 118 µM.

As for 5FAM-SGSGCFIPWNLQRIGLLC-NH2 (disulfide 5-18 (inferred)) [Compound 33], binding was put at a Kd of 6.01 µM.

The molecule Ac-LMPWNLVRIGLLR-NH2 [Compound 50] showed a Kd of 16.1 µM.

For 5FAM-SGSGCRLPWNLQRIGLPC-NH2 (disulfide 5-18 (inferred)) [Compound 34], the Kd was determined as 4.47 µM.

Another assay addresses T2, human PCSK9 (proprotein convertase …). The experiment in a line: TR-FRET competition vs EGF(A)-Fc on His-PCSK9. (In general: Time-resolved FRET reads energy transfer from a long-lived donor to a nearby acceptor.)
One may read the IC50 as the midpoint of a concentration-inhibition curve. Ac-TVFTSWEEYLDWVGSGGCRLPWNLQRIGLPC-NH2 (disulfide 18-31 (inferred)) [Compound 25]: the IC50 was 781 nM.

Ac-TVFTSWEEYLDWVGSGGCFLPWNLQRIGLLC-NH2 (disulfide 18-31 (inferred)) [Compound 38] gave an IC50 of 471 nM.

Take Ac-TVFTSWEEYLDWVGSGCWNLGRIGSQGC-NH2 (disulfide 17-28 (inferred)) [Compound 11]: the IC50 was determined as 340 nM.

In turn, Ac-TVFTSWEEYLDWVGSGCWNLKRVGSQGC-NH2 (disulfide 17-28 (inferred)) [Compound 12] gave an IC50 of 190 nM.

In turn, Ac-TVFTSWEEYLDWVGGSGCWNLKRIGSQGC-NH2 (disulfide 18-29 (inferred)) [Compound 13] yielded an IC50 of 10 nM.

Ac-TVFTSWEEYLDWVGSGGCWNLKRIGSQGC-NH2 (disulfide 18-29 (inferred)) [Compound 14]: the IC50 came out at 9 nM.

As for Ac-TVFTSWEEYLDWVGSGCRLPWNLQRIGLPC-NH2 (disulfide 17-30 (inferred), also called Pep2-8p4; Pep2-8_K9gvpep4) [Compound 19], the IC50 worked out at 9 nM.

A further assay has the same target. The experiment in a line: TR-FRET competition vs EGF(A)-Fc on His-PCSK9. This is another data set of the same source.
As to Ac-TVFTSWEEYLDWVGSGKLWN-NH2 [Compound 7], the IC50 was found to be 500 nM.

Ac-TVFTSWEEYLDWVGSGKLWNLGRV-NH2 [Compound 1] showed an IC50 of 388 nM.

Ac-TVFTSWEEYLDWVGSGKLWNLGR-NH2 [Compound 4] came in with an IC50 of 490 nM.

Regarding Ac-TVFTSWEEYLDWVGSGDLMPWNLVRIGLLR-NH2 (also called Pep2-8p7; Pep2-8_K9gvpep7) [Compound 20], the IC50 amounted to 37 nM.

Consider Ac-TVFTSWEEYLDWVGGSGKLWNLGRV-NH2 [Compound 8], for which the IC50 amounted to 1030 nM.

In the case of Ac-TVFTSWEEYLDWVGSGGKLWNLGRV-NH2 [Compound 9], the IC50 turned out to be 390 nM.

In the case of Ac-TVFTSWEEYLDWVGSGKLWNL-NH2 [Compound 6], the IC50 came to 740 nM.

Ac-TVFTSWEEYLDWVGSGKLWNLG-NH2 [Compound 5]: the IC50 is 720 nM.

A further assay shares this target. The experiment in a line: TR-FRET competition vs EGF(A)-Fc on His-PCSK9. The source holds these as a separate data set.
B5 registered an IC50 of more than 50 µM.

For Ac-WNLVRIGLLR-NH2 [Compound 53], the IC50 is more than 50 µM.

For the molecule Ac-PWNLVRIGLLR-NH2 [Compound 52], the IC50 is more than 50 µM.

Consider Ac-MPWNLVRIGLLR-NH2 [Compound 51], for which the IC50 was more than 50 µM.

In turn, Ac-ALMPWNLVRIGLLR-NH2 [Compound 45] showed an IC50 of more than 50 µM.

Turning to Ac-DLMPWNLVRIGLAR-NH2 [Compound 55], the IC50 is more than 50 µM.

The molecule B6 registered an IC50 of more than 50 µM.

Turning to Ac-LMPWNLVRIGLLR-NH2 [Compound 50], the IC50 was more than 50 µM.

Another assay shares this target. The assay can be described thus: SPR, Biacore T100, His-tagged protein captured on NTA chip (Method 1).
B7 yielded a Kd of 46.1 µM.

As for Ac-TVFTSWEEYLDWVGSGDLMPWNLVRIGLLR-NH2 (also called Pep2-8p7; Pep2-8_K9gvpep7) [Compound 20], the affinity, expressed as Kd, was 0.00556 µM.

For H-SGCFIPWNLQRIGLLC-NH2 (disulfide 3-16 (inferred)) [Compound 26], the Kd came out at 29 µM.

Molecule Ac-TVFTSWEEYLDWVGSGCRLPWNLQRIGLPC-NH2 (disulfide 17-30 (inferred), also called Pep2-8p4; Pep2-8_K9gvpep4) [Compound 19] showed a Kd of 0.00207 µM.

For the origin of these results see patent US20190177366A1 (published 2019).
